Article PMC4377584, “Sestrin2 inhibits mTORC1 through modulation of GATOR complexes” (Scientific Reports, 2015)

Target: T1, HA-GATOR2 (UniProt Q9NXC5 1-875; Q96S15 1-790; Q6PJI9 1-974; Q96EE3 1-360; P55735 1-322)
T1 construct: MIOS; WDR24; WDR59; SEH1L; SEC13; that every subunit carried the HA tag is read from the name HA-GATOR2; also called immunopurified GATOR2 protein components; purified GATOR2; source: HEK293, transfected, immunopurified (anti-HA agarose beads, HA peptide); copies: + + + +
Assay: pull-down; in vitro: purified proteins mixed in 20 ul buffer A (30 mM Tris-HCl pH8.0, 100 mM NaCl, 1 mM TCEP), incubated overnight with antibodies against the target protein, protein G/A bead, immunoblot; 1 ug Sestrin2; in Fig. 2D GATOR1 pulled down with NPRL2 antibody and detection with HA antibody
Conditions: both partners purified

- binding result: binds
B1: Recombinant Sestrin2 (natural protein, UniProt P58004 1-480, looked up)
chain: MIVADSECRAELKDYLRFAPGGVGDSGPGEEQRESRARRGPRGPSAFIPVEEVLREGAESLEQHLGLEALMSSGRVDNLAVVMGLHPDYFTSFWRLHYLLLHTDGPLASSWRHYIAIMAAARHQCSYLVGSHMAEFLQTGGDPEWLLGLHRAPEKLRKLSEINKLLAHRPWLITKEHIQALLKTGEHTWSLAELIQALVLLTHCHSLSSFVFGCGILPEGDADGSPAPQAPTPPSEQSSPPSRDPLNNSGGFESARDVEALMERMQQLQESLLRDEGTSQEEMESRFELEKSESLLVTPSADILEPSPHPDMLCFVEDPTFGYEDFTRRGAQAPPTFRAQDYTWEDHGYSLIQRLYPEGGQLLDEKFQAAYSLTYNTIAMHSGVDTSVLRRAIWNYIHCVFGIRYDDYDYGEVNQLLERNLKVYIKTVACYPEKTTRRMYNLFWRHFRHSEKVHVNLLLLEARMQAALLYALRAITRYMT
notes: Full-length Sestrin2 cDNA; also called Sestrin2 protein; purified Sestrin2; source: Rosetta (DE3) pLysS E. coli, purified (Ni-NTA, amylase resin, TEV, HiTrap Q, Superdex 200); not shown: His6, N-terminal, cleaved; MBP, N-terminal, cleaved
